Measurements reported in the supplement of paper PMC9170038.

Tested on: MS2 coat protein
Test: apparent KD of MS2 coat protein; designed switch direction (-1 OFF switch, 1 ON switch): -1; higher = weaker reporter binding
In short: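 Each step of the titration lasted 0.8–1.5 h at the lowest concentration and 10–20 min at the highest. The protein, SNAP-549-labelled MS2 coat protein, went from 0.7 or 1.5 nM doubling to 3 µM over RNA switches transcribed on Illumina chips by stalled E. coli RNA polymerase. Normalised cluster fluorescence was curve-fitted, and the per-design median over clusters is given as apparent KD.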

[1] = input ligand: microRNA oligo, concentration not stated
[2] = Eterna round: R95, input ligand: microRNA oligo, concentration not stated

## UUUUAGUAAGGAUAUGUGGUACGCUUAAAAUAGGAAGGGACACAGAAGGUACAUGAGGAUCACCCAUGUGAACC [Eternabot (L1) Solution 49] (Eterna round: R97, puzzle: Exclusion 4)
Input ligand: FMN 200 uM
  apparent KD of MS2 coat protein: 140 nM
Input ligand: none
  apparent KD of MS2 coat protein: 61.9 nM

## AGAGAAUAGGUAGGAUAUCUUAAUAGAAAGAAUAGAGAAGGACCACAUGAGGAUCACCCAUGUGAAGUCUUGAGACUACAUGGU [Prohibition 31 - Jieux - Exclusion NG 1] (Eterna round: R96, puzzle: Exclusion NG 1)
[1]
  apparent KD of MS2 coat protein: 15 nM

## CCUCUAUUUGUGAGGAUAUCGGUAAACUGGAUUGUCGAGAAGGCACAUGAGGAUCACCCAUGUAUUGAACAGCA [JR_BMEx4_Sub021] (Eterna round: R97, puzzle: Brourd's mod of Exclusion 4)
Input ligand: FMN 200 uM
  apparent KD of MS2 coat protein: 203 nM
Input ligand: none
  apparent KD of MS2 coat protein: 31.2 nM

## CUAACGAAAGGAUAUAUGGCAUGAGACAUGAGGAUCACCCAUGUGAACCACCUACAGUACAUAGAAGGUUCGCUAG [Eternabot (Original) Solution 18] (Eterna round: R97, puzzle: Exclusion 5)
Input ligand: FMN 200 uM
  apparent KD of MS2 coat protein: 65.9 nM
Input ligand: none
  apparent KD of MS2 coat protein: 94.6 nM

## CACCUGAACUCAGGAUAUCAUACAUGAGGAUCACCCAUGUAAUAAAUGAGAAUUUCGAAUGUAAUUGAGAAGGGAGAAUAAGGC [Ostricism 98 - Jieux - Exclusion NG 2] (Eterna round: R96, puzzle: Exclusion NG 2)
Input ligand: FMN 200 uM
  apparent KD of MS2 coat protein: 88.8 nM
[1]
  apparent KD of MS2 coat protein: 33.8 nM
Input ligand: none
  apparent KD of MS2 coat protein: 38.8 nM

## UUUUCGUGAGGAUAUCAGUAGUAAAUAAAUAAAAUUACUACUGAGAAGGCACAUGAGGAUCACCCAUGUUCCUU [salish99_ex3_r3_094] (puzzle: Exclusion 4)
[2]
  apparent KD of MS2 coat protein: 13.6 nM

## UACGAAGAGUGAGGAUAUGUGCGACAAAGUUGCACAGAAGGCACAUGAGGAUCACCCAUGUGAGCUAGGUCGAAAGACCUAGCG [Omei Exc(NG)1 Av6] (Eterna round: R96, puzzle: Exclusion NG 1)
Input ligand: FMN 200 uM
  apparent KD of MS2 coat protein: 37 nM
[1]
  apparent KD of MS2 coat protein: 13.6 nM
Input ligand: none
  apparent KD of MS2 coat protein: 19.7 nM

## UUUAAGUAAGGAUAUGCGAGCCACGGAAAUAAAACGUGGAGGUAGAAGGUACAUGAGGAUCACCCAUGUAAAAC [Mod of Anonveat 23 - Jieux - Exclusion 4] (Eterna round: R97, puzzle: Exclusion 4)
Input ligand: FMN 200 uM
  apparent KD of MS2 coat protein: 21.8 nM
Input ligand: none
  apparent KD of MS2 coat protein: 23.1 nM

## UAGCAUUGCCUUUGGUAGUGCCUUACAUGAGGAUCACCCAUGUAGGAUAUGGUAGGCUUUGCUUACCAGAAGGACAUGGUAAUU [JL ENG3 1.06] (Eterna round: R96, puzzle: Exclusion NG 3)
[1]
  apparent KD of MS2 coat protein: 54.1 nM

## AUAAUGUCAGGAUAUACUAAUGAUGAAUGAUUAGACAUUAUGUAGAAGGGACAUGAGGAUCACCCAUGUAAUAU [EX4 #2] (Eterna round: R97, puzzle: Exclusion 4)
Input ligand: FMN 200 uM
  apparent KD of MS2 coat protein: 39.9 nM
Input ligand: none
  apparent KD of MS2 coat protein: 26.8 nM

## UGACAGCUAGGAUAUGGGCGUGCUUACAUGAGGAUCACCCAUGUGGUAUCUGAGUAGCACCCAGAAGGAGCCCGCG [Eternabot (L2) Solution 87] (Eterna round: R97, puzzle: Exclusion 5)
Input ligand: FMN 200 uM
  apparent KD of MS2 coat protein: 1350 nM
Input ligand: none
  apparent KD of MS2 coat protein: 656 nM

## AAAUAGGGAGGAUAUCCAAUAUAUGACAUGAGGAUCACCCAUGUUUCCACUCGUACCUCCGGAGAAGGCCCAUAAA [Ex5 #3] (Eterna round: R97, puzzle: Exclusion 5)
Input ligand: FMN 200 uM
  apparent KD of MS2 coat protein: 20.9 nM
Input ligand: none
  apparent KD of MS2 coat protein: 21.8 nM

## UCGGCGCGAGGAUAUGCGGCUGGUGCUUCGGGCCCUCGCGUACAUGAGGAUCACCCAUGUAGAAGGCGCGCCGC [Apr-15 SS2-43] (puzzle: Exclusion 2)
[2]
  apparent KD of MS2 coat protein: 20.5 nM

## GACCUAUAGGUAGGAUAUCAUUGCGAUUAGCUAUGAGAAGGGCCACAUGAGGAUCACCCAUGUCCUCCAAUUAACCAUAAGGUC [Fiskers ExNg1 - 6] (Eterna round: R96, puzzle: Exclusion NG 1)
Input ligand: FMN 200 uM
  apparent KD of MS2 coat protein: 38.5 nM
[1]
  apparent KD of MS2 coat protein: 26.7 nM
Input ligand: none
  apparent KD of MS2 coat protein: 37.3 nM

## UAUAAGAUAGGAUAUACAGGCCCGUCUUCAUAUUGAUCCCGACAUGAGGAUCACCCAUGUAGAAGGAUCGUAUA [Mod 23 - Jieux - Exclusion 2] (Eterna round: R97, puzzle: Exclusion 2)
Input ligand: FMN 200 uM
  apparent KD of MS2 coat protein: 23.3 nM
Input ligand: none
  apparent KD of MS2 coat protein: 21.9 nM

## AAUUCACAUGAGGAUCACCCAUGUCAGGAUAUGGUUUCACGUGUUUCGGUGCGUGAGGCCAGAAGGGACAGCUA (puzzle: Exclusion 1)
[2]
  apparent KD of MS2 coat protein: 49.7 nM

## CCAAGCUUAUUCAUUAACAACAUGAGGAUCACCCAUGUGUAGGCAAUUAUGUUUGGGCUCUUUAGUGCUCGUCUUAU [Sensor-V1 #22] (Eterna round: R97, puzzle: Sensor, turn-off variant 1)
Input ligand: FMN 200 uM
  apparent KD of MS2 coat protein: 14.7 nM
Input ligand: none
  apparent KD of MS2 coat protein: 14.7 nM

## UGAGACUGAGGAUAUACUAGCCCAUAAAGUGGGUAGUGGGUACAUGAGGAUCACCCAUGUAGAAGGCAGCCUCG [Omei Repeat Sequence v2] (Eterna round: R97, puzzle: Exclusion 2)
Input ligand: FMN 200 uM
  apparent KD of MS2 coat protein: 251 nM
Input ligand: none
  apparent KD of MS2 coat protein: 29.4 nM

## AUAAGUGAUAAGGAUAUUACUAGCUGCGGCUAGUGAGAAGGUAUCACAUGAGGAUCACCCAUGUGUUCCAAUAA [Ex6/7-B3] (Eterna round: R97, puzzle: Exclusion 6)
Input ligand: FMN 200 uM
  apparent KD of MS2 coat protein: 254 nM
Input ligand: none
  apparent KD of MS2 coat protein: 134 nM

## AGAGAAUAGUCAGGAUAUGUGAAUAGAUAGAGAACAGAAGGGACACAUGAGGAUCACCCAUGUGAAGUCUUGAGGCUGCAUGGA [Prohibition 22 - Jieux - Exclusion NG 1] (Eterna round: R96, puzzle: Exclusion NG 1)
Input ligand: FMN 200 uM
  apparent KD of MS2 coat protein: 43.9 nM
[1]
  apparent KD of MS2 coat protein: 24.1 nM
Input ligand: none
  apparent KD of MS2 coat protein: 39 nM

## CUCUUGAGUCAGGAUAUCGAGAGGCUAAUAAAACGAGAAGGGACUACAUGAGGAUCACCCAUGUGAUCGCAAAA [Geonge] (Eterna round: R97, puzzle: Exclusion 6)
Input ligand: FMN 200 uM
  apparent KD of MS2 coat protein: 433 nM
Input ligand: none
  apparent KD of MS2 coat protein: 61.7 nM

## ACUUACUGAGGAUAUACAUAGAUUUACAUGAGGAUCACCCAUGUUCCUCUAAGUAUAUAUGUAGAAGGCAGAAGGG [Mat - Exclusion 5 - JL Mod - D41] (Eterna round: R97, puzzle: Exclusion 5)
Input ligand: FMN 200 uM
  apparent KD of MS2 coat protein: 55.6 nM
Input ligand: none
  apparent KD of MS2 coat protein: 166 nM

## AAACGGAUAGGAUAUACUUGAGGAUCACCCAAGUGAUCAGUCCCGGGAAUUCCCGCAAGUAGAAGGAUCAAAAG [Arisrevexe] (Eterna round: R97, puzzle: Exclusion 3)
Input ligand: FMN 200 uM
  apparent KD of MS2 coat protein: 1120 nM
Input ligand: none
  apparent KD of MS2 coat protein: 162 nM

## GUUAACGAAGAGGAUAUAUGAUAUCAAAGCUUCAUAGAAGGCUUCACAUGAGGAUCACCCAUGUGAUCUUCUUU [jl-ex6-4.09 ViennaUCT mod] (Eterna round: R97, puzzle: Exclusion 6)
Input ligand: FMN 200 uM
  apparent KD of MS2 coat protein: 44.2 nM
Input ligand: none
  apparent KD of MS2 coat protein: 15.1 nM

## AUUAAUUGUCAGAUGGGUGACAUGAGGAUCACCCAUGUCACAAGCUUUUUGCUCGUCUUAUAAUUAACCCAUCUGAC [Stov1/11-A2] (Eterna round: R97, puzzle: Sensor, turn-off variant 1)
Input ligand: FMN 200 uM
  apparent KD of MS2 coat protein: 14.1 nM
Input ligand: none
  apparent KD of MS2 coat protein: 13.3 nM

## UUUUAACAUGAGGAUCACCCAUGUGAGGAUAUCGAAUUUUUUAUUAAUAUUAAUAAAACGAGAAGGCACAUUUU [JMF 16] (puzzle: Exclusion 1)
[2]
  apparent KD of MS2 coat protein: 55.2 nM

## GAGAAACAUGAGGAUCACCCAUGUGAGGAUAUGAGCACGCCGGUGACGGUGAUAAGAAUCAGAAGGCACAUUAA [Mat - Exclusion 1 - JL Mod - D34] (Eterna round: R97, puzzle: Exclusion 1)
Input ligand: FMN 200 uM
  apparent KD of MS2 coat protein: 95.7 nM
Input ligand: none
  apparent KD of MS2 coat protein: 38.8 nM

## UUUUCACAUGAGGAUCACCCAUGUGAGGAUAUGGUUUCGCUGGCCGUAGCCAGUGGAACCAGAAGGCGCAUGAU [Mat - Exclusion 1 - JL Mod - D6] (Eterna round: R97, puzzle: Exclusion 1)
Input ligand: FMN 200 uM
  apparent KD of MS2 coat protein: 35.3 nM
Input ligand: none
  apparent KD of MS2 coat protein: 30.2 nM

## UAGAUGCUCAGGGAGUGUGACAUGAGGAUCACCCAUGUGGUGGUAGGGAACAAGCUUUUUGCACGUACUUAUGAGUA [JR_SV3TOV1_Sub007] (Eterna round: R96, puzzle: Sensor v3, turn-off variant 1)
Input ligand: FMN 200 uM
  apparent KD of MS2 coat protein: 435 nM
[1]
  apparent KD of MS2 coat protein: 148 nM
Input ligand: none
  apparent KD of MS2 coat protein: 497 nM

## CGUGUGUGAGGAUAUGACAAUGGUAUCUUCGGAUACCAUUGUCAGAAGGUACAUGAGGAUCACCCAUGUAGAUC [Exclusion 4 - Mod Brourd Ex 4-3: 20 v.2] (puzzle: Exclusion 4)
[2]
  apparent KD of MS2 coat protein: 35.6 nM

## UAAUUAAGUGUGAGGAUAUGCUGGUCCUUGGAUCAGCAGAAGGCACAUGAGGAUCACCCAUGUAAAUUAUUUAU [Mat - Exclusion 4 - JL Mod - D60] (puzzle: Brourd's mod of Exclusion 4)
[2]
  apparent KD of MS2 coat protein: 73.2 nM

## UUAAAUCAUGUAGGAUAUGCUUUGCGAAGCGAGGCAGAAGGACAUGAGGAUCACCCAUGUGCUAGCGUCCGAGAACGGAUGCAA [Mat - Exclusion NG 1 - Mod of JL - D63] (Eterna round: R96, puzzle: Exclusion NG 1)
Input ligand: FMN 200 uM
  apparent KD of MS2 coat protein: 149 nM
[1]
  apparent KD of MS2 coat protein: 51.8 nM
Input ligand: none
  apparent KD of MS2 coat protein: 79.6 nM

## GAUAGAGAGCAGGAUAUCUUGGGUAAGUGUUGUAGAGAAGGGCUCACAUGAGGAUCACCCAUGUGGUCCAAGAU [JL Dibiri mod 07] (puzzle: Exclusion 6)
Eterna round: R95, input ligand: FMN 200 uM
  apparent KD of MS2 coat protein: 35.2 nM
[2]
  apparent KD of MS2 coat protein: 16.9 nM
Eterna round: R95, input ligand: none
  apparent KD of MS2 coat protein: 17.2 nM

## UUGUACCGGUGAGGAUAUUUUUAAUAGAGCUUUAUGAUAUACAUGAGGAUCACCCAUGUUACGUUGAAGAAGGCAUCGGAUUAU [JL JR Sub091 mod 5] (Eterna round: R96, puzzle: Exclusion NG 2)
Input ligand: FMN 200 uM
  apparent KD of MS2 coat protein: 19.3 nM
[1]
  apparent KD of MS2 coat protein: 15.5 nM
Input ligand: none
  apparent KD of MS2 coat protein: 19.8 nM
